We go through one molecule from paper PMC8876058 (Viruses, 2022).

Test [1] concerns the target T1, CyPet-PIAS1 (SUMOylation E3 ligase PIAS1 fused to the FRET donor CyPet) (human, UniProt O75925 1-651).
T1 construct: also called SUMO E3
The experiment in a line: FRET or BRET. Particulars: both partners purified. (In general: Bioluminescence resonance energy transfer reports proximity on the nanometre scale.)

Test [2] deals with T2, CyPet-Ubc9 (SUMOylation E2 conjugating enzyme Ubc9 fused to the FRET donor CyPet) (human, UniProt P63279 1-158).
T2 construct: also called SUMO E2
T2 sequence (P63279 whole entry, the tested form may be a part): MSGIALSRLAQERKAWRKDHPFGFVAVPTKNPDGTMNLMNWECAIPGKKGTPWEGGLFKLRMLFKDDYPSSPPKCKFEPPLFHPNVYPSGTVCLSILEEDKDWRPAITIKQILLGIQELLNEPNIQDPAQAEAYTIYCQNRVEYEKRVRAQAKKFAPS
Description: FRET or BRET. The settings on record: both partners purified.

T1 sequence (O75925 whole entry, the tested form may be a part): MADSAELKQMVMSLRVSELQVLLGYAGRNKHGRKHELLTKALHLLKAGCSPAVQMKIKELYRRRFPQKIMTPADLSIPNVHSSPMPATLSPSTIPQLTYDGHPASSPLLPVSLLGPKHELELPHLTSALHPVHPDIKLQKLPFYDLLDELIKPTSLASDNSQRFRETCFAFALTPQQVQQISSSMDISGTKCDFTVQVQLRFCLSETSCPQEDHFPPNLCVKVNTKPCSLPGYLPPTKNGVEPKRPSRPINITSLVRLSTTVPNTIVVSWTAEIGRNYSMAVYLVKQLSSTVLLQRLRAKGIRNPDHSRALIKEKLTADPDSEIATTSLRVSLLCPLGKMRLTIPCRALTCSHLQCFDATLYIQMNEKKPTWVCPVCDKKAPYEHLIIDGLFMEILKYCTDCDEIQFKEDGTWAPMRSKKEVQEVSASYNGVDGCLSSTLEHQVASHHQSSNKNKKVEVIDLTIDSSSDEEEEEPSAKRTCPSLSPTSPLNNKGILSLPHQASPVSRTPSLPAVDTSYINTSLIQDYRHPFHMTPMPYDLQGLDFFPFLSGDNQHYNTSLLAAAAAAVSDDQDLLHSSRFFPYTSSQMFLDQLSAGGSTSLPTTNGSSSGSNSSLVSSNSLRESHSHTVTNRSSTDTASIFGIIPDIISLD

B1: YPet-Linker3-M1 (M1 protein of influenza B virus fused to the FRET acceptor YPet) (natural protein)
chain: MSLFGDTIAYLLSLTEDGEGKAELAEKLHCWFGGKEFDLDSALEWIKNKRCLTDIQKALIGASICFLKPKDQERKRRFITEPLSGMGTTATKKKGLILAERKMRRCVSFHEAFEIAEGHESSALLYCLMVMYLNPGNYSMQVKLGTLCALCEKQASHSHRAHSRAARSSVPGVRREMQMVSAMNTAKTMNGMGKGEDVQKLAEELQSNIGVLRSLGASQKNGEGIAKDVMEVLKQSSMGNSALVKKYL
One may read the Kd as the constant that tells how readily two partners part at equilibrium. Take B1: the Kd worked out at 220 nM in test [1] and 200 nM in test [2].
